{"source": "the RNAGym collection of RNA variant scans (doi:10.7554/elife.80360)", "parents": {"B1": {"name": "HDV Ribozyme (parent)", "chain": "GGCCGGCAUGGUCCCAGCCUCCUCGCUGGCGCCGGCUGGGCAACAUUCCGAGGGGACCGUCCCCUCGGUAAUGGCGAAUGGGACCCA"}}, "data": [{"variants_of": "B1", "assay": "self-cleavage, relative activity (ratio to wild type); higher = more cleavage; co-transcriptional", "values": [{"variant": "GGCCGGCAUGGUCCCAGCCUCCGCGCUGGCGCCGGGUGGGCAACAUUCCGAGGGGACCGUCCCCUCGGUAAUGGCGAAUGGGACCCA", "note": "[U23G C36G]", "self-cleavage": 0.252}, {"variant": "GGCCGGCAUGGUCCCAGCCUCCGCGCUGGCGCCGGUUGGGCAACAUUCCGAGGGGACCGUCCCCUCGGUAAUGGCGAAUGGGACCCA", "note": "[U23G C36U]", "self-cleavage": 0.386}, {"variant": "GGCCGGCAUGGUCCCAGCCUCCGCGCUGGCGCCGGCUGGGCAACAUUCCGAGGGGACCGUCCCCUCGGUAAUGGCGAGUGGGACCCA", "note": "[U23G A78G]", "self-cleavage": 0.262}, {"variant": "GGCCGGCAUGGUCCCAGCCUCCGCGCUGGCGCCGGCUGGGCAACAUUCCGAGGGGACCGUCCCCUCGGUAAUGGCGAUUGGGACCCA", "note": "[U23G A78U]", "self-cleavage": 0.0875}, {"variant": "GGCCGGCAUGGUCCCAGCCUCCGCGCUGGCGCCGGCUGGGCAACAUUCGGAGGGGACCGUCCCCUCGGUAAUGGCGAAUGGGACCCA", "note": "[U23G C49G]", "self-cleavage": 0.346}, {"variant": "GGCCGGCAUGGUCCCAGCCUCCCCGCUGGCGCCGGCUGGGCAACAUUCCGAGGGGACCGGCCCCUCGGUAAUGGCGAAUGGGACCCA", "note": "[U23C U60G]", "self-cleavage": 0.798}, {"variant": "GGCCGGCAUGGUCCCAGCCUCCGCGCUGGCGCCGGCUGGGCAACAUUCCGAGGGGACCGUCCCCUCGGUAAUGGCGAAUGGGACCCU", "note": "[U23G A87U]", "self-cleavage": 0.715}, {"variant": "GGCCGGCAUGGUCCCAGCCUCCCCGCUGGCGCCGGCUGGGCAACAUUCCGAGGGGACCGUCCCCUCGGGAAUGGCGAAUGGGACCCA", "note": "[U23C U69G]", "self-cleavage": 0.739}, {"variant": "GGCCGGCAUGGUCCCAGCCUCCCCGCUGGCGCCGGCUGGGCAACAUUCCGAGGGGACCGUCCCCUCGGAAAUGGCGAAUGGGACCCA", "note": "[U23C U69A]", "self-cleavage": 0.8}, {"variant": "GGCCGGCAUGGUCCCAGCCUCCGCGCUGGCGCCGGCUGGGCAACAUUCCGAGGGGACGGUCCCCUCGGUAAUGGCGAAUGGGACCCA", "note": "[U23G C58G]", "self-cleavage": 0.72}, {"variant": "GGCCGGCAUGGUCCCAGCCUCCGCGCUGGCGCCGGCUGGGCAACAUUCCGAGGGGACUGUCCCCUCGGUAAUGGCGAAUGGGACCCA", "note": "[U23G C58U]", "self-cleavage": 0.582}, {"variant": "GGCCGGCAUGGUCCCAGCCUCCCCGCUGGCGCCGGCUGGGCAACAUUCCGAGGGGACCGUCCCCUCGGUAACGGCGAAUGGGACCCA", "note": "[U23C U72C]", "self-cleavage": 0.665}, {"variant": "GGCCGGCAUGGUCCCAGCCUCCGCGCUGGCGCCGGCUGGGCAACAUUCCGAGGGGACCGUCCCCUCGGUUAUGGCGAAUGGGACCCA", "note": "[U23G A70U]", "self-cleavage": 0.492}, {"variant": "GGCCGGCAUGGUCCCAGCCUCCGUGCUGGCGCCGGCUGGGCAACAUUCCGAGGGGACCGUCCCCUCGGUAAUGGCGAAUGGGACCCA", "note": "[U23G C24U]", "self-cleavage": 0.314}, {"variant": "GGCCGGCAUGGUCCCAGCCUCCGAGCUGGCGCCGGCUGGGCAACAUUCCGAGGGGACCGUCCCCUCGGUAAUGGCGAAUGGGACCCA", "note": "[U23G C24A]", "self-cleavage": 0.706}, {"variant": "GGCCGGCAUGGUCCCAGCCUCCGCGCUGGCGCCGGCUGGGCAACAUUCCGAGGGGACCGUGCCCUCGGUAAUGGCGAAUGGGACCCA", "note": "[U23G C61G]", "self-cleavage": 0.628}, {"variant": "GGCCGGCAUGGUCCCAGCCUCCCCGCUGGCGCCGGCUGGGCAACAUUCCGAGGGGACCGUCCCCUCGGUAAUGGCGAAGGGGACCCA", "note": "[U23C U79G]", "self-cleavage": 0.883}, {"variant": "GGCCGGCAUGGUCCCAGCCUCCGCGCUGGCGCAGGCUGGGCAACAUUCCGAGGGGACCGUCCCCUCGGUAAUGGCGAAUGGGACCCA", "note": "[U23G C33A]", "self-cleavage": 0}, {"variant": "GGCCGGCAUGGUCCCAGCCUCCGCGCUGGCGCCGGCUGGGCAACCUUCCGAGGGGACCGUCCCCUCGGUAAUGGCGAAUGGGACCCA", "note": "[U23G A45C]", "self-cleavage": 0.151}, {"variant": "GGCCGGCAUGGUCCCAGCCUCCGCGCUGGCGCCGGCUGGGCAACGUUCCGAGGGGACCGUCCCCUCGGUAAUGGCGAAUGGGACCCA", "note": "[U23G A45G]", "self-cleavage": 0.962}, {"variant": "GGCCGGCAUGGUCCCAGCCUCCGCGCUGGCGGCGGCUGGGCAACAUUCCGAGGGGACCGUCCCCUCGGUAAUGGCGAAUGGGACCCA", "note": "[U23G C32G]", "self-cleavage": 0.237}, {"variant": "GGCCGGCAUGGUCCCAGCCUCCGCGCUGGCGCCGGCUGGGUAACAUUCCGAGGGGACCGUCCCCUCGGUAAUGGCGAAUGGGACCCA", "note": "[U23G C41U]", "self-cleavage": 0.723}, {"variant": "GGCCGGCAUGGUCCCAGCCUCCGCGCUGGCGCCGGCUGGGCAACAUUCCGAGGGGACCGUCCCCUAGGUAAUGGCGAAUGGGACCCA", "note": "[U23G C66A]", "self-cleavage": 0.724}, {"variant": "GGCCGGCAUGGUCCCAGCCUCCGCGCUGGCGCCGGCUGGGCAACAUUCCGAGGGGACCGUCCCCUCGGUAAUGGAGAAUGGGACCCA", "note": "[U23G C75A]", "self-cleavage": 0}, {"variant": "GGCCGGCAUGGUCCCAGCCUCCGCGCUGGCGCCGGCUGGGCAUCAUUCCGAGGGGACCGUCCCCUCGGUAAUGGCGAAUGGGACCCA", "note": "[U23G A43U]", "self-cleavage": 0.219}, {"variant": "GGCCGGCAUGGUCCCAGCCUCCGCGCUGGCGCCGGCUGGGCAACAUUCCGAGGGGACCGUCCACUCGGUAAUGGCGAAUGGGACCCA", "note": "[U23G C63A]", "self-cleavage": 0.623}, {"variant": "GGCCGGCAUGGUCCCAGCCUCCCCGCUGGCGCCGGCUGGGCAACAUGCCGAGGGGACCGUCCCCUCGGUAAUGGCGAAUGGGACCCA", "note": "[U23C U47G]", "self-cleavage": 1.28}, {"variant": "GGCCGGCAUGGUCCCAGCCUCCGCGCUGGCGCCGGCUGGGCAACAUUCCGAGGGGACCGUCGCCUCGGUAAUGGCGAAUGGGACCCA", "note": "[U23G C62G]", "self-cleavage": 0.453}, {"variant": "GGCCGGCAUGGUCCCAGCCUCCGCGCUGGCGCCGGCUGGGCAACAUUUCGAGGGGACCGUCCCCUCGGUAAUGGCGAAUGGGACCCA", "note": "[U23G C48U]", "self-cleavage": 0.731}, {"variant": "GGCCGGCAUGGUCCCAGCCUCCGCGCUGGCGCCGGCUGGGCAACAUUGCGAGGGGACCGUCCCCUCGGUAAUGGCGAAUGGGACCCA", "note": "[U23G C48G]", "self-cleavage": 0.361}, {"variant": "GGCCGGCAUGGUCCCAGCCUCCGCGGUGGCGCCGGCUGGGCAACAUUCCGAGGGGACCGUCCCCUCGGUAAUGGCGAAUGGGACCCA", "note": "[U23G C26G]", "self-cleavage": 0.831}, {"variant": "GGCCGGCAUGGUCCCAGCCUCCGCGCUGGCGCCGGCUGGGCAAGAUUCCGAGGGGACCGUCCCCUCGGUAAUGGCGAAUGGGACCCA", "note": "[U23G C44G]", "self-cleavage": 0.277}]}]}
